Biological target: the molecule itself
Test: SEC; Superdex 200 in the large-scale purification from E. coli; retention volumes of the mutants compared with wt MUT; data not shown

Protein | stoichiometry N
MUT p.Y100C (enzyme, human, methylmalonyl-CoA mutase (MUT), human; construct 'hMUT' of Froese et al., 2010b with a patient missense mutation; Same construct limits as m1 (see its note); source: E. coli, purified (Ni-NTA, Superdex 200, TEV cleavage, reverse Ni-NTA)) LHQQQPLHPEWAALAKKQLKGKNPEDLIWHTPEGISIKPLYSKRDTMDLPEELPGVKPFTRGPYPTMCTFRPWTIRQYAGFSTVEESNKFYKDNIKAGQQGLSVAFDLATHRGYDSDNPRVRGDVGMAGVAIDTVEDTKILFDGIPLEKMSVSMTMNGAVIPVLANFIVTGEEQGVPKEKLTGTIQNDILKEFMVRNTYIFPPEPSMKIIADIFEYTAKHMPKFNSISISGYHMQEAGADAILELAYTLADGLEYSRTGLQAGLTIDEFAPRLSFFWGIGMNFYMEIAKMRAGRRLWAHLIEKMFQPKNSKSLLLRAHCQTSGWSLTEQDPYNNIVRTAIEAMAAVFGGTQSLHTNSFDEALGLPTVKSARIARNTQIIIQEESGIPKVADPWGGSYMMECLTNDVYDAALKLINEIEEMGGMAKAVAEGIPKLRIEECAARRQARIDSGSEVIVGVNKYQLEKEDAVEVLAIDNTSVRNRQIEKLKKIKSSRDQALAERCLAALTECAASGDGNILALAVDASRARCTVGEITDALKKVFGEHKANDRMVSGAYRQEFGESKEITSAIKRVHKFMEREGRRPRLLVAKMGQDGHDRGAKVIATGFADLGFDVDIGPLFQTPREVAQQAVDADVHAVGISTLAAGHKTLVPELIKELNSLGRPDILVMCGGVIPPQDYEFLFEVGVSNVFGPGTRIPKAAVQVLDDIEKCLEKKQQSV | 2
MUT p.G426R (enzyme, human, methylmalonyl-CoA mutase (MUT), human; construct 'hMUT' of Froese et al., 2010b with a patient missense mutation; Same construct limits as m1 (see its note); source: E. coli, purified (Ni-NTA, Superdex 200, TEV cleavage, reverse Ni-NTA)) LHQQQPLHPEWAALAKKQLKGKNPEDLIWHTPEGISIKPLYSKRDTMDLPEELPGVKPFTRGPYPTMYTFRPWTIRQYAGFSTVEESNKFYKDNIKAGQQGLSVAFDLATHRGYDSDNPRVRGDVGMAGVAIDTVEDTKILFDGIPLEKMSVSMTMNGAVIPVLANFIVTGEEQGVPKEKLTGTIQNDILKEFMVRNTYIFPPEPSMKIIADIFEYTAKHMPKFNSISISGYHMQEAGADAILELAYTLADGLEYSRTGLQAGLTIDEFAPRLSFFWGIGMNFYMEIAKMRAGRRLWAHLIEKMFQPKNSKSLLLRAHCQTSGWSLTEQDPYNNIVRTAIEAMAAVFGGTQSLHTNSFDEALGLPTVKSARIARNTQIIIQEESGIPKVADPWRGSYMMECLTNDVYDAALKLINEIEEMGGMAKAVAEGIPKLRIEECAARRQARIDSGSEVIVGVNKYQLEKEDAVEVLAIDNTSVRNRQIEKLKKIKSSRDQALAERCLAALTECAASGDGNILALAVDASRARCTVGEITDALKKVFGEHKANDRMVSGAYRQEFGESKEITSAIKRVHKFMEREGRRPRLLVAKMGQDGHDRGAKVIATGFADLGFDVDIGPLFQTPREVAQQAVDADVHAVGISTLAAGHKTLVPELIKELNSLGRPDILVMCGGVIPPQDYEFLFEVGVSNVFGPGTRIPKAAVQVLDDIEKCLEKKQQSV | 2
MUT p.T387I (enzyme, human, methylmalonyl-CoA mutase (MUT), human; construct 'hMUT' of Froese et al., 2010b with a patient missense mutation; Same construct limits as m1 (see its note); source: E. coli, purified (Ni-NTA, Superdex 200, TEV cleavage, reverse Ni-NTA)) LHQQQPLHPEWAALAKKQLKGKNPEDLIWHTPEGISIKPLYSKRDTMDLPEELPGVKPFTRGPYPTMYTFRPWTIRQYAGFSTVEESNKFYKDNIKAGQQGLSVAFDLATHRGYDSDNPRVRGDVGMAGVAIDTVEDTKILFDGIPLEKMSVSMTMNGAVIPVLANFIVTGEEQGVPKEKLTGTIQNDILKEFMVRNTYIFPPEPSMKIIADIFEYTAKHMPKFNSISISGYHMQEAGADAILELAYTLADGLEYSRTGLQAGLTIDEFAPRLSFFWGIGMNFYMEIAKMRAGRRLWAHLIEKMFQPKNSKSLLLRAHCQTSGWSLTEQDPYNNIVRTAIEAMAAVFGGTQSLHINSFDEALGLPTVKSARIARNTQIIIQEESGIPKVADPWGGSYMMECLTNDVYDAALKLINEIEEMGGMAKAVAEGIPKLRIEECAARRQARIDSGSEVIVGVNKYQLEKEDAVEVLAIDNTSVRNRQIEKLKKIKSSRDQALAERCLAALTECAASGDGNILALAVDASRARCTVGEITDALKKVFGEHKANDRMVSGAYRQEFGESKEITSAIKRVHKFMEREGRRPRLLVAKMGQDGHDRGAKVIATGFADLGFDVDIGPLFQTPREVAQQAVDADVHAVGISTLAAGHKTLVPELIKELNSLGRPDILVMCGGVIPPQDYEFLFEVGVSNVFGPGTRIPKAAVQVLDDIEKCLEKKQQSV | 2
MUT p.Q218H (enzyme, human, methylmalonyl-CoA mutase (MUT), human; construct 'hMUT' of Froese et al., 2010b with a patient missense mutation; Same construct limits as m1 (see its note); source: E. coli, purified (Ni-NTA, Superdex 200, TEV cleavage, reverse Ni-NTA)) LHQQQPLHPEWAALAKKQLKGKNPEDLIWHTPEGISIKPLYSKRDTMDLPEELPGVKPFTRGPYPTMYTFRPWTIRQYAGFSTVEESNKFYKDNIKAGQQGLSVAFDLATHRGYDSDNPRVRGDVGMAGVAIDTVEDTKILFDGIPLEKMSVSMTMNGAVIPVLANFIVTGEEQGVPKEKLTGTIHNDILKEFMVRNTYIFPPEPSMKIIADIFEYTAKHMPKFNSISISGYHMQEAGADAILELAYTLADGLEYSRTGLQAGLTIDEFAPRLSFFWGIGMNFYMEIAKMRAGRRLWAHLIEKMFQPKNSKSLLLRAHCQTSGWSLTEQDPYNNIVRTAIEAMAAVFGGTQSLHTNSFDEALGLPTVKSARIARNTQIIIQEESGIPKVADPWGGSYMMECLTNDVYDAALKLINEIEEMGGMAKAVAEGIPKLRIEECAARRQARIDSGSEVIVGVNKYQLEKEDAVEVLAIDNTSVRNRQIEKLKKIKSSRDQALAERCLAALTECAASGDGNILALAVDASRARCTVGEITDALKKVFGEHKANDRMVSGAYRQEFGESKEITSAIKRVHKFMEREGRRPRLLVAKMGQDGHDRGAKVIATGFADLGFDVDIGPLFQTPREVAQQAVDADVHAVGISTLAAGHKTLVPELIKELNSLGRPDILVMCGGVIPPQDYEFLFEVGVSNVFGPGTRIPKAAVQVLDDIEKCLEKKQQSV | 2
MUT p.N366S (enzyme, human, methylmalonyl-CoA mutase (MUT), human; construct 'hMUT' of Froese et al., 2010b with a patient missense mutation; Same construct limits as m1 (see its note); source: E. coli, purified (Ni-NTA, Superdex 200, TEV cleavage, reverse Ni-NTA)) LHQQQPLHPEWAALAKKQLKGKNPEDLIWHTPEGISIKPLYSKRDTMDLPEELPGVKPFTRGPYPTMYTFRPWTIRQYAGFSTVEESNKFYKDNIKAGQQGLSVAFDLATHRGYDSDNPRVRGDVGMAGVAIDTVEDTKILFDGIPLEKMSVSMTMNGAVIPVLANFIVTGEEQGVPKEKLTGTIQNDILKEFMVRNTYIFPPEPSMKIIADIFEYTAKHMPKFNSISISGYHMQEAGADAILELAYTLADGLEYSRTGLQAGLTIDEFAPRLSFFWGIGMNFYMEIAKMRAGRRLWAHLIEKMFQPKNSKSLLLRAHCQTSGWSLTEQDPYNSIVRTAIEAMAAVFGGTQSLHTNSFDEALGLPTVKSARIARNTQIIIQEESGIPKVADPWGGSYMMECLTNDVYDAALKLINEIEEMGGMAKAVAEGIPKLRIEECAARRQARIDSGSEVIVGVNKYQLEKEDAVEVLAIDNTSVRNRQIEKLKKIKSSRDQALAERCLAALTECAASGDGNILALAVDASRARCTVGEITDALKKVFGEHKANDRMVSGAYRQEFGESKEITSAIKRVHKFMEREGRRPRLLVAKMGQDGHDRGAKVIATGFADLGFDVDIGPLFQTPREVAQQAVDADVHAVGISTLAAGHKTLVPELIKELNSLGRPDILVMCGGVIPPQDYEFLFEVGVSNVFGPGTRIPKAAVQVLDDIEKCLEKKQQSV | 2
MUT p.Y231N (enzyme, human, methylmalonyl-CoA mutase (MUT), human; construct 'hMUT' of Froese et al., 2010b with a patient missense mutation; Same construct limits as m1 (see its note); source: E. coli, purified (Ni-NTA, Superdex 200, TEV cleavage, reverse Ni-NTA)) LHQQQPLHPEWAALAKKQLKGKNPEDLIWHTPEGISIKPLYSKRDTMDLPEELPGVKPFTRGPYPTMYTFRPWTIRQYAGFSTVEESNKFYKDNIKAGQQGLSVAFDLATHRGYDSDNPRVRGDVGMAGVAIDTVEDTKILFDGIPLEKMSVSMTMNGAVIPVLANFIVTGEEQGVPKEKLTGTIQNDILKEFMVRNTNIFPPEPSMKIIADIFEYTAKHMPKFNSISISGYHMQEAGADAILELAYTLADGLEYSRTGLQAGLTIDEFAPRLSFFWGIGMNFYMEIAKMRAGRRLWAHLIEKMFQPKNSKSLLLRAHCQTSGWSLTEQDPYNNIVRTAIEAMAAVFGGTQSLHTNSFDEALGLPTVKSARIARNTQIIIQEESGIPKVADPWGGSYMMECLTNDVYDAALKLINEIEEMGGMAKAVAEGIPKLRIEECAARRQARIDSGSEVIVGVNKYQLEKEDAVEVLAIDNTSVRNRQIEKLKKIKSSRDQALAERCLAALTECAASGDGNILALAVDASRARCTVGEITDALKKVFGEHKANDRMVSGAYRQEFGESKEITSAIKRVHKFMEREGRRPRLLVAKMGQDGHDRGAKVIATGFADLGFDVDIGPLFQTPREVAQQAVDADVHAVGISTLAAGHKTLVPELIKELNSLGRPDILVMCGGVIPPQDYEFLFEVGVSNVFGPGTRIPKAAVQVLDDIEKCLEKKQQSV | 2
MUT p.R369H (enzyme, human, methylmalonyl-CoA mutase (MUT), human; construct 'hMUT' of Froese et al., 2010b with a patient missense mutation; Same construct limits as m1 (see its note); source: E. coli, purified (Ni-NTA, Superdex 200, TEV cleavage, reverse Ni-NTA)) LHQQQPLHPEWAALAKKQLKGKNPEDLIWHTPEGISIKPLYSKRDTMDLPEELPGVKPFTRGPYPTMYTFRPWTIRQYAGFSTVEESNKFYKDNIKAGQQGLSVAFDLATHRGYDSDNPRVRGDVGMAGVAIDTVEDTKILFDGIPLEKMSVSMTMNGAVIPVLANFIVTGEEQGVPKEKLTGTIQNDILKEFMVRNTYIFPPEPSMKIIADIFEYTAKHMPKFNSISISGYHMQEAGADAILELAYTLADGLEYSRTGLQAGLTIDEFAPRLSFFWGIGMNFYMEIAKMRAGRRLWAHLIEKMFQPKNSKSLLLRAHCQTSGWSLTEQDPYNNIVHTAIEAMAAVFGGTQSLHTNSFDEALGLPTVKSARIARNTQIIIQEESGIPKVADPWGGSYMMECLTNDVYDAALKLINEIEEMGGMAKAVAEGIPKLRIEECAARRQARIDSGSEVIVGVNKYQLEKEDAVEVLAIDNTSVRNRQIEKLKKIKSSRDQALAERCLAALTECAASGDGNILALAVDASRARCTVGEITDALKKVFGEHKANDRMVSGAYRQEFGESKEITSAIKRVHKFMEREGRRPRLLVAKMGQDGHDRGAKVIATGFADLGFDVDIGPLFQTPREVAQQAVDADVHAVGISTLAAGHKTLVPELIKELNSLGRPDILVMCGGVIPPQDYEFLFEVGVSNVFGPGTRIPKAAVQVLDDIEKCLEKKQQSV | 2
